In one data set the test system is T1, O=Cc1ccc(CO)o1.
T1 construct: full-length, N-terminal His6x-SUMO fusion kept, recombinant from E. coli (pET SUMO / pBAD SUMO), FAD-containing
As to the kind of experiment: purified protein. Format: biochemical, Methylovorus sp. MP688. The conditions noted are these: 50 mM phosphate pH 8.0, 25 °C, O2 as electron acceptor.

Substrate in the data set “purified protein”: O=Cc1ccc(CO)o1
As to the kind of experiment: purified protein. The conditions noted are these: 50 mM phosphate pH 8.0, 25 °C, O2 as electron acceptor.

In the case of “HMFO (HMF oxidase) (Methylovorus sp. MP688; A419Y/A435E/G356H/H74Y/I73V/T414K/V367L)”, in the data set with O=Cc1ccc(CO)o1, the Km was determined as 630 µM, the catalytic constant (kcat) came out at 11.8 s⁻¹ and the kcat/Km came out at 18700 M⁻¹ s⁻¹.

B1: HMFO (HMF oxidase) (Methylovorus sp. MP688) (protein)
chain: MTDTIFDYVIVGGGTAGSVLANRLSARPENRVLLIEAGIDTPENNIPPEIHDGLRPWLPRLSGDKFFWPNLTIHRAAEHPGITREPQFYEQGRLLGGGSSVNMVVSNRGLPRDYDEWQALGADGWDWQGVLPYFIKTERDADYGDDPLHGNAGPIPIGRVDSRHWSDFTVAATQALEAAGLPNIHDQNARFDDGYFPPAFTLKGEERFSAARGYLDASVRVRPNLSLWTESRVLKLLTTGNAITGVSVLRGRETLQVQAREVILTAGALQSPAILLRTGIGPAADLHALGIPVLADRPGVGRNLWEHSSIGVVAPLTEQARADASTGKAGSRHQLGIRASSGVDPATPSDLFLHIGADPVSGLASAVFWVNKPSSTGWLKLKDADPFSYPDVDFNLLSDPRDLGRLKAGLRLITHYFAAPSLAKYGLALALSRFAAPQPGGPLLNDLLQDEAALERYLRTNVGGVWHASGTARIGRADDSQAVVDKAGRVYGVTGLRVADASIMPTVPTANTNLPTLMLAEKIADAILTQA
For the molecule B1, in the data set “purified protein”, the Km worked out at 1520 µM, the kcat came to 13.7 s⁻¹ and the specificity constant (kcat/Km) turned out to be 9030 M⁻¹ s⁻¹.

As usually defined, the Km is the concentration of substrate that gives half-maximal velocity. As usually defined, the kcat is the number of substrate molecules converted per active site and unit of time at saturation. In general, kcat/Km refers to the turnover number divided by the Michaelis constant.

Source of the values: article PMC5831843, “Creating a more robust 5-hydroxymethylfurfural oxidase by combining computational predictions with a novel effective library design” (Biotechnology for Biofuels, 2018).
